{
  "source": "patent US20200181597A1",
  "about": "“Composition and Application of Arginine-depleting Agents for Cancer, Obesity, Metabolic Disorders, and Related Complications and Comorbidities” (THE HONG KONG POLYTECHNIC UNIVERSITY, priority 2018, published 2020)",
  "molecules": {"B1": {"name": "N-ABD094-rhArg: albumin binding domain ABD094 fused N-terminally to recombinant human arginase I, SEQ ID NO: 50 (protein)", "chain": "MHHHHHHDEAVDANSLAEAKEAANAELDSYGVSDFYKRLIDKAKTVEGVEALKDAILAALPSGSNNNNNNGSGGMSAKSRTIGIIGAPFSKGQPRGGVEEGPTVLRKAGLLEKLKEQECDVKDYGDLPFADIPNDSPFQIVKNPRSVGKASEQLAGKVAEVKKNGRISLVLGGDHSLAIGSISGHARVHPDLGVIWVDAHTDINTPLTTTSGNLHGQPVSFLLKELKGKIPDVPGFSWVTPCISAKDIVYIGLRDVDPGEHYILKTLGIKYFSMTEVDRLGIGKVMEETLSYLLGRKKRPIHLSFDVDGLDPSFTPATGTPVVGGLTYREGLYITEEIYKTGLLSGLDIMEVNPSLGKTPEEVTRTVNTAVAITLACFGLAREGNHKPIDYLNPPK", "modifications": "Mn2+; N-ABD094-rhArg, Synthesized in the Lab"}},
  "key": {"[1]": {"test": "Normal lean mice on chow diet, 500U at 10-day intervals for 4 weeks", "format": "in vivo, C57BL/6J male mice", "excerpt": "Thus, we treated normal lean C57BL/6J male mice fed an ordinary chow diet via i.p. injection of 500U N-ABD094-rhArg (SEQ ID NO: 50) at 10-day intervals for 4 weeks. After 4 weeks of treatment, there was over 25% reduction of visceral (perigondal, perirenal and mesenteric fad pad) and subcutaneous (inguinal fat pad) fat mass (FIG. 15A) in comparison with the control mice injected with the vehicle (saline).\nObesity is highly associated with insulin resistance. We therefore conducted both in vivo and in vitro study to determine whether N-ABD094-rhArg (SEQ ID NO: 50) treatment will have effects on insulin sensitivity. […] At 24-hour after culture in N-ABD094-rhArg (SEQ ID NO: 50) or control (without addition of N-ABD094-rhArg) medium, primary hepatocytes were stimulated with 100 nM insulin for 20 min. Cells were then collected for Western blot analysis to detect phosphorylated protein kinase B (pAkt), which is commonly used as marker of insulin signaling."}, "[2]": {"test": "Blood pressure by tail cuff method in DIO mice", "format": "in vivo", "details": "600U at 7-day intervals for 5 weeks", "excerpt": "Obesity is associated with cardiovascular disease and hypertension. DIO mice treated with 600U N-ABD094-rhArg (SEQ ID NO: 50) at 7-day intervals for 5 weeks were subjected to measurement of blood pressure by tail cuff method using the CODA Non-invasive Blood Pressure System (Kents Scientific Corporation)."}, "HCT116": {"system": "HCT116", "test": "cells", "details": "HCT116, Day 3", "method": "(§1) The in vitro efficacy of ABD and rhArg fusion protein was tested on human colon cancer cell lines. Human colon cancer cell lines (HCT116, LOVO and HT29) were seeded in 96-well plate at densities of 5×10^3 cells/well. After 1 day of incubation, the culture medium was replaced with medium containing different concentrations (2, 0.4, 0.08, 0.016 and 0.0032 U/ml) of N-ABD094-rhArg (SEQ ID NO: 50). MTT assay was conducted at Day 3 [3 days after N-ABD094-rhArg (SEQ ID NO: 50) treatment] to determine the IC50 values. The culture medium was replaced with MTT solution (1 mg/ml) (Invitrogen) and incubated at 37° C. for 4 h. After incubation, MTT solution was replaced with dimethyl sulfoxide (DMSO), and the absorbance at 570 nm was measured with a reference of 650 nm. The cell viability was determined by dividing the absorbance of N-ABD094-rhArg-treated cells by the average absorbance of untreated cells. […] Three independent sets of experiments (n=3) were performed for each cell line.\n(§2) MTT assay was conducted at Day 3. Three independent sets of experiments (n=3) were performed for each cell line.\n(§3) For drug-combination assay, a non-constant ratio analysis was performed (Hastak et al., 2010, Cancer Res. 70(20):7970-7980). Colon cancer cells were seeded and after 1 day of incubation, the culture medium was replaced with medium containing different concentrations of N-ABD094-rhArg (SEQ ID NO: 50) (2, 0.4, 0.08, 0.016, 0.0032 U/ml) combined with fixed amount of CQ according to its IC50. MTT assay was conducted at Day 3. The combination index (CI) of combined N-ABD094-rhArg (SEQ ID NO: 50) and CQ treatment was analyzed by software CalcuSyn version 2.1. Three independent sets of experiments (n=3) were performed for each cell line."}, "HT29": {"system": "HT29", "test": "cells", "details": "HT29, Day 3", "method": "as §1, §2, §3"}, "LOVO": {"system": "LOVO", "test": "cells", "details": "LOVO, Day 3", "method": "as §1, §2, §3"}, "[3]": {"details": "500U at 10-day intervals, 4 weeks"}},
  "data": [
    {"molecule": "B1", "values": [
      {"measurement": "mRNA levels of Acc1, Fasn, Scd1 in visceral WAT and liver", "setting": "[1]; [3]", "result": "dramatically suppressed"},
      {"measurement": "size of adipocytes in visceral WAT (histology)", "setting": "[1]; [3]", "result": "prominent reduction"},
      {"measurement": "reduction of visceral and subcutaneous fat mass vs vehicle", "setting": "[1]; 500U i.p. at 10-day intervals, after 4 weeks", "result": "over 25%"},
      {"measurement": "insulin sensitivity in insulin tolerance test (ITT)", "setting": "[1]; after 2 weeks of treatment", "result": "significant increase"},
      {"measurement": "systolic and diastolic blood pressure and heart rate vs vehicle-treated DIO mice", "setting": "[2]", "result": "significantly lower"},
      {"measurement": "IC50", "setting": "HCT116", "result": 0.22, "unit": "U/ml"},
      {"measurement": "IC50", "setting": "HT29", "result": 0.58, "unit": "U/ml"},
      {"measurement": "IC50", "setting": "LOVO", "result": 0.38, "unit": "U/ml"}
    ]}
  ]
}
